Patent publication US20210017264A1 (SHANGHAI YILE BIOTECHNOLOGY, published 2021)

Target: T1, human proBDNF protein (prokaryotically expressed, Example 1) (human, UniProt P23560 19-247)
T1 construct: Vector-derived residues or tags are not described; also called human proBDNF antigen; recombinant human proBDNF
T1 sequence (looked up): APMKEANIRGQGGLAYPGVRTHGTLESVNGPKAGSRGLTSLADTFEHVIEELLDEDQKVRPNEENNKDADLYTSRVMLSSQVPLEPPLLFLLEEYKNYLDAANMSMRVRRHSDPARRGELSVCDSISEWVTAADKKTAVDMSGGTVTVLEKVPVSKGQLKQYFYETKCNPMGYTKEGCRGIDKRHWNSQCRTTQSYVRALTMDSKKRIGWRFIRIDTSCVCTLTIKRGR
Assay: SPR, Biacore T200; human proBDNF coated directly on the chip (~500 RU); 2B11 injected at 10-160 nM, 25 C; 1:1 Langmuir model
Protocol: Binding affinity of 2B11 against recombinant human proBDNF was measured by Surface Plasmon resonance (SPR) using Biacore T200™. 1×HBS-EP+ buffer was used as running buffer. Recombinant human proBDNF was directly coated on CMS biosensor chip to achieve approximately 500 response units (RU). For kinetics measurements, two-fold serial dilutions (10 nM to 160 nM) were injected at 25° C. with a flow rate of 30u1/min. Association rate (Kₐ) and dissociation rate (Kd) were calculated using a simple one to one Langmuir binding model (BIAcore Evaluation software version 3.2). The equilibrium dissociation constant (kD) was calculated as the ratio Kd/Kₐ. The binding affinity of 2B11 to human proBDNF is reported below: […]

B1: anti-proBDNF monoclonal antibody 2B11 (antibody, human IgG1, kappa, V domains shown)
VH: EVKVVESGGGLVQPGGSLRLSCATSGFTFTDYYMSWVRQPPGKALEWLGFIRNKANGYTTEYSSSVKGRFTISRDNSQSILYLQMNTLRAEDSATYYCAITMDYWGQGTSVTVSS
VL: DIQMTQSPASLSASVGETVTITCRASGNIHNYLAWYQKKQGKSPHLLVYNAQTLADGVPSRFSGSASGTQYSLKIDSLQPEDFGSYYCQHFWSTPFTFGSGTKLEIKR
notes: also called murine monoclonal antibody 2B11; antibody secreted from clone 2B11
B1 gave a Kd of 4.04 nM, a koff of 0.00116 s⁻¹ and a kon of 288000 M⁻¹ s⁻¹.
